Test results: patent US20240400614A1, “CLEAVABLE PEPTIDES AND METHODS OF USE THEREOF” (Bright Peak Therapeutics AG, priority 2023, published 2024)
Square brackets hold non-standard residues; d marks the D form. Ends that are not written are not given here. Tyr(3-NO2) = N[C@@H](Cc1ccc(O)c([N+](=O)[O-])c1)C(=O)O; 2Abz = Nc1ccccc1C(=O)O

Legend:
Assay type in all cases: biochemical
Kallikrein-3 = Kallikrein-3 (Homo sapiens, UniProt P07288); experiment: FRET peptide cleavage efficiency with Kallikrein-3; conditions: peptide 200 uM, Kallikrein-3 2 μg/ml, 37° C., pH 8
uPA = uPA (Homo sapiens, UniProt P00749); experiment: FRET peptide cleavage efficiency with uPA; conditions: 200 uM linker, 1 ug/ml protease, 37° C., buffer A pH 8.5
matriptase = molecular target: T1, matriptase (Homo sapiens, UniProt Q9Y5Y6); experiment: FRET peptide cleavage efficiency with matriptase; conditions: 200 uM linker, 1 ug/ml protease, 37° C., buffer B pH 9.0
T1 construct: purchased R&D Systems 3946-SEB
T1 sequence (Q9Y5Y6 615-855 limits assumed): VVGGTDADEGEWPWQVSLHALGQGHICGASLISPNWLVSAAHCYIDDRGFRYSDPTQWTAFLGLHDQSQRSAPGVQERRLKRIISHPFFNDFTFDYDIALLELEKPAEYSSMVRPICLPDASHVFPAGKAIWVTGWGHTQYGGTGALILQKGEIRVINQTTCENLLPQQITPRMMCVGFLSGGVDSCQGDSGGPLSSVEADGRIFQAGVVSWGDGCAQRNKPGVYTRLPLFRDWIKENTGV

MMP-2 = molecular target: T2, MMP-2 (Homo sapiens, UniProt P08253); experiment: FRET peptide cleavage efficiency with MMP-2
T2 construct: purchased SIGMA PF023
T2 sequence (P08253 110-660): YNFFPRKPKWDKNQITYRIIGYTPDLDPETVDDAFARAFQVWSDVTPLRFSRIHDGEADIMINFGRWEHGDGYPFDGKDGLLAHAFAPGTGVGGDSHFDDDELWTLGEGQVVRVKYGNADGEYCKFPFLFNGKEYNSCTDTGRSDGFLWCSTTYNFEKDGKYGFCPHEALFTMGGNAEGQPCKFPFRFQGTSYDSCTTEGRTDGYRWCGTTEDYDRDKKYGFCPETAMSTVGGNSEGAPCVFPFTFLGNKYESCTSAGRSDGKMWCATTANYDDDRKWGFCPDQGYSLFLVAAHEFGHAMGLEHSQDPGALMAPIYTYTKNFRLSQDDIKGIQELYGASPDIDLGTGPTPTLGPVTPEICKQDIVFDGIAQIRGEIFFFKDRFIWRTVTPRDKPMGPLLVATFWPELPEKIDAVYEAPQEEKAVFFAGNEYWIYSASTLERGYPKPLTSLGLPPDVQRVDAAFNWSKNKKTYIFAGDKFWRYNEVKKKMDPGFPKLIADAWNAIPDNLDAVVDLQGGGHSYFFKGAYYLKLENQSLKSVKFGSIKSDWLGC

MMP-7 = molecular target: T3, MMP-7 (Homo sapiens, UniProt P09237); experiment: FRET peptide cleavage efficiency with MMP-7 (standard pH 7.5; also pH 6.5)
T3 construct: purchased SIGMA CC1059
T3 sequence (P09237 95-267): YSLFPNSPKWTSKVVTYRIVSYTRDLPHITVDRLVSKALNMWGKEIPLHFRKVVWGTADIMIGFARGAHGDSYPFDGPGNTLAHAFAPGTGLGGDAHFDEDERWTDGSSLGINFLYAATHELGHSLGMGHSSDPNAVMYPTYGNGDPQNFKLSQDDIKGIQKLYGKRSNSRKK

MMP-9 = molecular target: T4, MMP-9 (Homo sapiens, UniProt P14780); experiment: FRET peptide cleavage efficiency with MMP-9 (standard pH 7.5; also pH 6.5)
T4 construct: purchased SIGMA PF024
T4 sequence (P14780 94-707): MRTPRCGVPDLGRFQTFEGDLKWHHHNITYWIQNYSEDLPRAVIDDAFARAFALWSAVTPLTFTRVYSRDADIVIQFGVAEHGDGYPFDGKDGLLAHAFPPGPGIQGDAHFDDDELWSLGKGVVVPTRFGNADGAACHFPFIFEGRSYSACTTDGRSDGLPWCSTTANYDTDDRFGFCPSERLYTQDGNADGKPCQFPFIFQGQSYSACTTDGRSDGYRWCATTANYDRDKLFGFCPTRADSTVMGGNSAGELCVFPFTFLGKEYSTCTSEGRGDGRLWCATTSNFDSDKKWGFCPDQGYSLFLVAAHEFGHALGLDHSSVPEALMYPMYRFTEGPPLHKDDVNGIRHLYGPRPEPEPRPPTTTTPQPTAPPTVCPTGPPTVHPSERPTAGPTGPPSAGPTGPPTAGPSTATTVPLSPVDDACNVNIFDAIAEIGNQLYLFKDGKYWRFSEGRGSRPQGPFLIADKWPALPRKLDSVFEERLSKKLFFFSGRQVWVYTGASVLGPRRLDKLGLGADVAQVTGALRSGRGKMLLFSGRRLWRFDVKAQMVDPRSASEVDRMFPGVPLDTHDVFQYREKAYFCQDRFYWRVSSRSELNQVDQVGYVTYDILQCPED

Kallikrein-3, sequence (P07288 25-261, species assumed): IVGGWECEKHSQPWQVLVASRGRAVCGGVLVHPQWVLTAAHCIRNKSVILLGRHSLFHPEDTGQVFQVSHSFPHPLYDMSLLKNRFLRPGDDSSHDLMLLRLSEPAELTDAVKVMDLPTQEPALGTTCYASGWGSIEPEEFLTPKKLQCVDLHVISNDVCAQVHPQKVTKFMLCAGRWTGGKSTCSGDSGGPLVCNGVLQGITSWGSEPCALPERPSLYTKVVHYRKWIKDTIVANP

Kallikrein-3 t = 1 h % cleavage (Kallikrein-3; t = 1 h): 7% | Kallikrein-3 t = 3 h % cleavage (Kallikrein-3; t = 3 h): 20% | Kallikrein-3 t = 6 h % cleavage (Kallikrein-3; t = 6 h): 37% | Kallikrein-3 t = 8 h % cleavage (Kallikrein-3; t = 8 h): 45% | % cleavage uPA t = 15 min (uPA; t = 15 min): 0% | % cleavage uPA t = 60 min (uPA; t = 60 min): 0% | % cleavage uPA t = 120 min (uPA; t = 120 min): 0% | % cleavage Matriptase t = 15 min (matriptase; t = 15 min): 9% | % cleavage Matriptase t = 60 min (matriptase; t = 60 min): 35% | % cleavage Matriptase t = 120 min (matriptase; t = 120 min): 62% | % cleavage MMP-2 t = 15 min (MMP-2; t = 15 min (Table 9)): 82% | % cleavage MMP-2 t = 15 min (MMP-2; t = 15 min, 200 uM linker, 1 ug/ml protease, 37° C., buffer C pH 7.5): 82% | % cleavage MMP-2 t = 60 min (MMP-2; t = 60 min (Table 9)): 100% | % cleavage MMP-2 t = 60 min (MMP-2; t = 60 min, 200 uM linker, 1 ug/ml protease, 37° C., buffer C pH 7.5): 100% | % cleavage MMP-2 t = 120 min (MMP-2; t = 120 min (Table 9)): 100% | % cleavage MMP-2 t = 120 min (MMP-2; t = 120 min, 200 uM linker, 1 ug/ml protease, 37° C., buffer C pH 7.5): 100% | % cleavage MMP-7 t = 15 min (MMP-7; t = 15 min (Table 9)): 2% | % cleavage MMP-7 t = 60 min (MMP-7; t = 60 min (Table 9)): 3% | % cleavage MMP-7 t = 120 min (MMP-7; t = 120 min (Table 9)): 0% | % cleavage MMP-9 t = 15 min (MMP-9; t = 15 min (Table 9)): 23% | % cleavage MMP-9 t = 60 min (MMP-9; t = 60 min (Table 9)): 93% | % cleavage MMP-9 t = 120 min (MMP-9; t = 120 min (Table 9)): 100%
Sequence: SGRHSSKLQPLGYFGKL ([2Abz]SGRHSSKLQPLGYFGKL[Tyr(3-NO2)]-NH2) [LNK063]
